Measured values: the DeepSol protein solubility set

assay: soluble on expression in E. coli; label from the status in PepcDB or PDB records

Sequence | soluble on expression in E. coli
MTKKYDLHCHSTASDGVLSPTELVHRAYAQGVNVLALCDHDTIAGIDEAEIAAKEVGIELITGVEISTNWEGRGIHIVGLNFDKTHPKMTALLQSQKALREKRAVEIGDKLEKAGIPNAYDGAKALADGEVTRAHYARYLVQIGKVSNDGQAFKRYLGQGKSAFVKAEWADIPTAIETIHAAGGIAIIAHPLRYNMTGKWVRKLIVDFKAWGGDGMEMADCGQTKDQRQMLARWAKEFDLQGSVGSDFHFPCGWIELGKNLDLVDSVIPVWEKFLEHHHHHH | soluble
MAHHHHHHSLNDELKNKSGKVKVMYVRSDDDSDKRTHNPRTGKGGGRPAKSRTDGGRRPARDERNNQSRDRKHETSPWRTVSRAPGDETPEKVDHGGISGKSFIDPEVLRRQRAEETRVYGENACQALFQSRPDAIVRAWFIQSVTPRFKEALRWMAANRKAYHVVDEAELAKASGTEHHGGVCFLIKKRNGTTVKQWVKQAADQDCVLALEDVANPHNLGGMMRSCAHFGVKGVVVQDAALLESGAAIRTAEGGAEHVQPITGESIVDVLDDFRQAGYTVVTTSSDRGQALFSTTLPEKMVLVLGREYDYLPEAAREPDDLCVKINGTGNVESLNVSVATGVLLAEWWRQNKAEG | soluble
MTISTTSTPHDAVFKSFLRHPDTARNFINIHLPAPLRKLCDLTTLKLEPNSFIDEDLRQYYSDLLWSVKTQEGVGYIYVVIEHQSKPEELMAFRMMRYSIAAMQNHLDAGYKELPLVIPMLFYHGCRSPYPYSLCWLDEFAEPAIARKIYSSAFPLVDITVVPDDEIMQHRKMALLELIQKHIRQRDLLGLVDQIVSLLVTGNTNDRQLKALFNYVLQTGDAQRFRAFIGEITERAPQEKEKLMTIADRLREEGAMQGKHEEALRIAQEMLDRGLDRELVMMVTRLSPDDLIAQSH | not soluble
MGSDKIHHHHHHMAVIYYDKDADLNLIKDKKIAIIGYGSQGHAHALNLKDSGLNVVVGLREGSKSWKKAEEQGLTVKTIEEAAKEADIIMILIPDEHQPEIYKKYIEKHLTEGKMLMFAHGFNIHYHQIIPPKNVDVTMIAPKSPGHIVRREYVEGRGVPALVAVYQDYTGKAKDIALAYAKGIGVTRAGVIETTFKEETETDLFGEQAVLCGGVTALIKAGFETLVDAGYQPEIAYFECLNELKLIVDLIYEGGLSFMRYSVSNTAEYGDYISQEKIVTKEVRENMKQMLKDIQTGKFAKDWILENQAGRPYFYTMRKKESEHLIEKVGKELRKMMPWLKERNVDEE | not soluble
MRGSHHHHHHGSPGLQEFMAATGANAEKAESHNDCPVRLLNPNIAKMKEDILYHFNLTTSRHNFPALFGDVKFVCVGGSPSRMKAFIRCVGAELGLDCPGRDYPNICAGTDRYAMYKVGPVLSVSHGMGIPSISIMLHELIKLLYYARCSNVTIIRIGTSGGIGLEPGTVVITEQAVDTCFKAEFEQIVLGKRVIRKTDLNKKLVQELLLCSAELSEFTTVVGNTMCTLDFYEGQGRLDGALCSYTEKDKQAYLEAAYAAGVRNIEMESSVFAAMCSACGLQAAVVCVTLLNRLEGDQISSPRNVLSEYQQRPQRLVSYFIKKKLSKA | soluble
MSLMLEPNPTQIKEERIYAEMGLTDEEFAMVEKILGRLPNYTETGLFSVMWSEHCSYKNSKPVLRKFPTTGERVLQGPGEGAGIVDIGDNQAVVFKMESHNHPSAIEPYQGAATGVGGIIRDVFSMGARPVALLNSLRFGELQSPRVKYLFEEVVAGIAGYGNCIGIPTVGGEVQFDPCYEGNPLVNAMCVGLINHEDIKKGQAHGAGNTVMYVGASTGRDGIHGATFASEELSESSEAKRPAVQVGDPFMEKLLIEACLELIQSDALVGIQDMGAAGLTSSSAEMASKAGMGIEMYLDDVPQRETGMTPYEMMLSESQERMLIVVKKGREQEIVDLFEKYGLAAVTMGKVTEDKMLRLFHKGEMVAEVPADALAEEAPIYHKPSKEAAYFAEFQQMKMETPKVENYKETLFALLQQPTIASKEWVYDQYDYQVRTSTVVTPGSDAAVVRVRGTEKGLAMTTDCNSRYIYLDPEVGGKIAVAEAARNIVCSGGEPLAITDCLNFGNPEKPEIFWQIEKSVDGMSEACRTLQTPVIGGNVSMYNERSGEAVYPTPTVGMVGLVHDLKHVTTQEFKQAGDLVYVIGETKAEFGGSELQKMLHGKIFGQSPSIDLDVELKRQKQVLAAIQAGLVQSAHDVAEGGLAVAISESAIGANGLGATVKLDGEATAALFAESQSRFVITVKRENKEAFEKAVEAIQVGEVTNTNEVTIHNEENEVLLTANVDEMRKAWKGAIPCLLK | not soluble
SKSFNYSVSFNLSDYQGTVLKYSNPKGLIYDYYVGKKMGTIWGYTTDHIMTDPAEAKAINDSGVQNKFGGDWVVGDIKYVNLDDDPNINDGNQTLEDHGDLSIIGNDTPRYNFGFGFNADWNGIDFSMFLQGTMKRDLWLEGPVAFGLGGGQWGSNVWKNTLDCWREDGSNPDPWLPRLYLWSTSKNLQKQTRYMDTGAYCRLKNIQLGYSLPGAIINKVGLEKVRIYFSGDNLLTFSGINENFDPEAPWGGAYPISKSISFGVNVTF | not soluble
MFSYTDTILSIMQRIEVYNEIFKAISKEVQEYGCNQAAHRRGRDTYMFCRNNVNRFFTEEMMFRKNLEPYYDKEATKILLEGLDTYKEGVFFWLEALSESCQVTDELKYQLGIRQKESSYLLINQACKEACEGIQSAHSVHKM | not soluble
MGSDKIHHHHHHMSHTITVIGLGAGDLEQLPLGVYRLILNQDHLYVRTKDHPVIEELIGEGHSFTFFDSIYEQHETFEAVYDAIVAELLEAAKSKEILYAVPGHPLVAERTVQLLLEAEREGRVTVKILGGQSFLDPMFSALKIDPVEGCQVLDGTMLSRDEVHVTQHIVICQVYDQMIASHVKLTLMELLPDDYEVTVATAVGTKNEKLETVPLYELDRVTTISNLTAVYVPPVEDEVILYQDFRTLRQIIATLRGPDGCPWDKKQTHQSLKKYLLEEAYEVLEAIDEENEDHLVEELGDLLLQVLLHAQIGEDDGWFQIEDVIRSISEKMIRRHPHVFGERQVEDAEDVVETWDEIKKAEKGEDQASTSILGKIPKGLPSLMLAFELQKKAAKVGFDWAEVEPMWAKLDEEMHEFKEEIQAGHSQEMAKEFGDVLFVLVNIGRFYNIYAEEALHRTNEKFKRRFQSIEQAITAKGDTLEESSLEEMDVLWNQAKESESQGE | not soluble
GPGSMSNIKKVQTEADRLLKKVNEGLDAYDELHEKLANAPNASAKERLEGDLKRELKKLQRHREAMKSFMQNDDYKEKMKMQVSRKKIEERMETFRAIEREMKTKAFSNEGLASAALERADSATEQWLKDAIEEGRKKIELLEYEVQKANNGRVRRGKQQKSEYQIRLENLQTHFFKWESLLRMVNNEELDTDEVDDLQEPIQKVLEDDVDLDVMEDMSIYDSFDIPEPKAKPVVPFDVSDYEDKKVQSPKTTAKAKTPTSTVQAKPSPFITSPKETAASPPAAKAASSTPVPSSMQQPALAQAPQQQLLPPTANSPADDDIGEEEPVPEWMDDDMDTANDDTFGDAAMSGGFTIGSLAEMASATNKVTQDWEKSQKPVGSLEPKTVKVTDPVHGAPEEKRKPTPPVAAPTPNAWERRAAEQQSRQKVQQQQQKQAPEAASPVAPLGPVAAAAEASAPEAVTTSLINPVAATSPSTPAGSANTDPIQPFPPIPGAAPGSKFTPKKIHELLDMSLGNLPHTLDVQRQRPYEPPNAIDAIPYFPQEVLPVLSNKDVYHQMDLDTLFFIFYYHQKSYQQYFAAKELKARSYRYHTKQQRWYQRLERPQTTTETEERGSYTFFDFEDKWDHDRIDDFLFEYKYLENELH | soluble
MRLRNKPWAKDKIAAYPQYVIPDPETKRGRWRELFGRDRPIHVEIGTGKGKFITEMAKLHPDVNFIGIELYPSVLVSALDKLIESGLANVKLLNANAKDLTAFFADGEVSRIYLNFSDPWPKKRHEKRRLTYRDFLALYDRILAEDGDIHLKTDNQSFFEYSLVSLSQYGFVLASVQLDLHQSGMTDNVMTEYEEKFSSKGNRIYPMRGGAPAAAVVIGPNRLVGSFSISD | not soluble
MYYLELALGTQEMEAIVGKVTEVNKDTFWPIVKAAGDKPVVLDMFTQWCGPCKAMAPKYEKLAEEYLDVIFLKLDCNQENKTLAKELGIRVVPTFKILKENSVVGEVTGAKYDKLLEAIQAARS | soluble
MSLKDPLSEALVRLNQKVDSELIPEIKRFPLIGISTDISPKRTAVNTAYVQSVILSGGIPYMIPVTDNVEILRQIVSRLDGIVFTGGEDIQPMYYGDLPYEKLEEVSPARDTFDLMVLKMAADRNIPILGICRGLQLMNVAFGGTLYQDLPTQHPSSVNHRQKESGTTTTHPISIIKGSKLADITGQEVLQVNTFHHQAIQKLAPGFKITAWAPDSIAEAIEAYPIRQMIGVQFHPEIFTAAGDTTMHKLFKFLVNKADEGHHHHHH | not soluble
MGSDKIHHHHHHMKVMKDYKLMAVGQIVADCFDYAKVFNKYGIDFCCNGDVSLADACGKMGIDADCLLEELKQIKSEQSLTLDFKSWPIDLLVDYILKFHHRNIRYQGPQILQLLDRVCEAHAGKHPELYEVRELFQESWIDLNNHLTKEEMVLFPYIYDLFDAVAQHRPIPAFHCGSVSSPISVMMSEHDAEGERFRRISGLTHGYLVPGDACSSYRLLLEMLRTFEDNLHHHIHLENNIVFPKAIELQENCE | not soluble
MTSSNEKLPKINHDNEVFALLYKILSSEVQTIKGEDNEKVNQLRVDITISEISQLTDKMKKAFLEQPALLEISNEPITVVADMHGQSIHLLRIFLTNEAPPNQKYLFLGDYVDRGSQSVVVMCLLFCMKHRYPQHVFLLRGNHEDVNTTLNYGFYDECLEQWKNDEGEKVWRMFIDTFNCMPLAAVIGGKVFCAHGGISPWLESLEDINSIERPLVVPPYGLACDLLWSDPAQPERNGWGLSHRGISFTYGKSVVEEFCAKNDIALVIRGHQLFKEMYPQGCVLRFGGRLISLFSALNYEGHKNNSSVLKLEFVGQRVKVKQVLYRCRHYAPLRSNEYLGFRDMKSSSGKNEKRKKGRLESLLG | not soluble
MNECAFGTKDPVYLNYHDHVWGQPLYDSKALFKLLALESQHAGLSWLTILKKKEAYEEAFYDFEPEKVAQMTAQDIDRLMTFPNIVHHRKKLEAIVNQAQGYLKIEQAYGSFSKFLWSYVNGKPKDLQYEHASDRITVDDTATQLSKDLKQYGFKFLGPVTVFSFLEAAGLYDAHLKDCPSKPKHN | soluble
MAHHHHHHMTTADDVCGAYTLSHCDGKVAPTKATLTIHRCGEILTAHVTVVNDLRGTVQYENCHIVGSLHSTGNEASPAQESVEQALSKGFADGFNVVVEMNQVLLKNANSAFVFARLSKLSDLNGEHAIIAINDQPPNQEMTMIFTPDGNGGSFVAANIANSLRGNCQIDAGLLRGDLATTQSEADESLMQVEKLISEGFQQGFHVCMNESGILLQSSEANIQLCRIVSHSDLEGEYVLKSFNGAPVPTRNQPSIVFKSVNTNEVEISIVVANRIRGTAALNQNVLSSEEPLMSTRMMGTEEESQLENAFNVGFQYGLETISHGNELTLKNQDCKFVLVKAAAPAAQHGGPTYKGTYCNKCFKTEGNGLLFRIVNEHEKKWAFYNDTEDLRIRVRATFGARSKIEALDNANMYKDDDGRYVVEVTVDPQATEMFIQGDVNGFRVLYDAQPI | not soluble
